Values joined by “and” are separate entries in the source; they are usually repeats but may differ in a detail not shown here. Equal values may be shown once. Read-outs that look alike come from different tables or passages of the source.
Tests used:
SEC = target: the molecule itself; experiment: SEC
[1] = target: T1, untagged PNPase (catalytically active) (M. smegmatis, UniProt A0QVQ5 1-763); experiment: co-IP
T1 sequence: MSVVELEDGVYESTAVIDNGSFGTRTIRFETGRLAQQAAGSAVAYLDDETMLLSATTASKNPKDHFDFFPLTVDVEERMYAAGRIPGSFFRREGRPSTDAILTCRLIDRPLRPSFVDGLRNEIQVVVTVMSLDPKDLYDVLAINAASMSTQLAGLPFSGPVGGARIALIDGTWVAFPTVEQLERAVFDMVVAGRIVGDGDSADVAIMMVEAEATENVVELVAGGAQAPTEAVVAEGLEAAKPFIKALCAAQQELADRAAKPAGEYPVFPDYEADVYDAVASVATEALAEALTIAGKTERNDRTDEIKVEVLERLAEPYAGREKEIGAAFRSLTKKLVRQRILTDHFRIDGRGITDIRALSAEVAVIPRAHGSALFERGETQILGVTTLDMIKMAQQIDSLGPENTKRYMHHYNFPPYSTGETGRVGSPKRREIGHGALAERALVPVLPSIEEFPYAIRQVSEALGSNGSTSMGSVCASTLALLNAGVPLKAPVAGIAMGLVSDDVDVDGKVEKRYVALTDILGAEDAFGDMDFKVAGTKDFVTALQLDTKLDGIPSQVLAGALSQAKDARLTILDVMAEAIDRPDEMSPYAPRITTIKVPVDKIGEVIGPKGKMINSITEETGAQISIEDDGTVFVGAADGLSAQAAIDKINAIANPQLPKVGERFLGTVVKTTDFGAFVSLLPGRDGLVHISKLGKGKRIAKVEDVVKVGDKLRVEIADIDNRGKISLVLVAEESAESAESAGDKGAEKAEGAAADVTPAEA

[2] = target: T2, HA-tagged PNPase (catalytically active) (M. smegmatis, UniProt A0QVQ5 1-763); experiment: co-IP
T2 sequence: T1 sequence

[3] = target: T2, HA-tagged PNPase (catalytically active); experiment: co-IP; remark: listed apart in the source

B1: catalytically dead RNase E C-terminal IDR deletion (retaining AA 2-823), N-terminal 6x-His and FLAG tagged (domain or fragment)
chain: AEDAHTEDLSTQTPQQEGLPERLRVHSLARVLGTTSRRVLDALAEFDGRQRSAHSTVDKADAERVRAALTESPAAETPPEEAPAAETPVADLVVVQAEQVEVVTVSEAGPAEPAEPAEPEAPAAEAEAEAETEVADEAETPEPTFRGAVLVGDEPESRLILEHANIPPARETQTERPDYLPLFVAPQPVSFEPAVVDDEDEDDDTETGAESDFDSGADSDSDDDQADRPRRRRRGRRGRGRGRGEQNDDATSDADTDSTEDQTDGDEQESGEDSDDSGDEDSTTTEGGTRRRRRRRRRKSGSGDSDDAVSPDDPPNTVVHERAPRTERSDKSDDSEIQGISGSTRLEAKRQRRRDGRDAGRRRPPILSEAEFLARREAVERTMIVRDKVRTEPPHEGARYTQIAVLEDGVVVEHFVTSAASASLVGNIYLGIVQNVLPSMEAAFVDIGRGRNGVLYAGEVNWEAAGLGGQNRKIEQALKPGDYVVVQVSKDPVGHKGARLTTQVSLAGRYLVYVPGASSTGISRKLPDTERQRLKEILREVVPSDAGVIIRTASEGVKEEDIRSDVERLQKRWSEIEAKAAEVTEKKAGAAVALYEEPDVLVKVIRDLFNEDFSSLIVSGDEAWNTINSYVEAVAPDLMPRLTKYEPAGPDAPDVFAVHRIDEQLAKAMDRKVWLPSGGTLVIDRTEAMTVVRVNTGKFTGSGGNLEQTVTRNNLEAAEEIVRQLRLRDIGGIVVIRFIDMVLESNRDLVLRRLTEALARDRTRHQVSEVTSLGLVQLTRKRLGTGLVEAFSTACTHCGGRGIVLHGDPIDSASSNGGRKSD
Q: For B1, which “stoichiometry N” value (SEC) is on record?
A: 2 and 4

B2: catalytically dead full-length RNase E (D694R, D738R), N-terminal 6x-His and FLAG tagged (enzyme)
chain: MAEDAHTEDLSTQTPQQEGLPERLRVHSLARVLGTTSRRVLDALAEFDGRQRSAHSTVDKADAERVRAALTESPAAETPPEEAPAAETPVADLVVVQAEQVEVVTVSEAGPAEPAEPAEPEAPAAEAEAEAETEVADEAETPEPTFRGAVLVGDEPESRLILEHANIPPARETQTERPDYLPLFVAPQPVSFEPAVVDDEDEDDDTETGAESDFDSGADSDSDDDQADRPRRRRRGRRGRGRGRGEQNDDATSDADTDSTEDQTDGDEQESGEDSDDSGDEDSTTTEGGTRRRRRRRRRKSGSGDSDDAVSPDDPPNTVVHERAPRTERSDKSDDSEIQGISGSTRLEAKRQRRRDGRDAGRRRPPILSEAEFLARREAVERTMIVRDKVRTEPPHEGARYTQIAVLEDGVVVEHFVTSAASASLVGNIYLGIVQNVLPSMEAAFVDIGRGRNGVLYAGEVNWEAAGLGGQNRKIEQALKPGDYVVVQVSKDPVGHKGARLTTQVSLAGRYLVYVPGASSTGISRKLPDTERQRLKEILREVVPSDAGVIIRTASEGVKEEDIRSDVERLQKRWSEIEAKAAEVTEKKAGAAVALYEEPDVLVKVIRDLFNEDFSSLIVSGDEAWNTINSYVEAVAPDLMPRLTKYEPAGPDAPDVFAVHRIDEQLAKAMDRKVWLPSGGTLVIDRTEAMTVVRVNTGKFTGSGGNLEQTVTRNNLEAAEEIVRQLRLRDIGGIVVIRFIDMVLESNRDLVLRRLTEALARDRTRHQVSEVTSLGLVQLTRKRLGTGLVEAFSTACTHCGGRGIVLHGDPIDSASSNGGRKSDSSGGGGSGGGRRGKRGKKGAARTEEVHVAKVPDHTPGEHPMFKAMAAANGKHEGDEDHEDHEDHETAEDTTAAEVRDDTRDEHDADERAHVVTAAVGAAGDEDLDDSDEDSDLDSDEESDDESDEDEIELDDDEDELDEDIEVIGDSDDSDDSDDSDEDDDSDDSDDDSDEDEDSDSDEDEEPVREVYEPPVTAPRARVRRRAAARPAGPPSHD
Q: With B2 as the binder, how does the “stoichiometry N” value (SEC) read?
A: 4

B3: HA-tagged RNase J (catalytically active) (enzyme)
chain: MSAELAPPPPLAPGGLRVTALGGISEIGRNMTVFEHLGRLLIVDCGVLFPGHDEPGVDLILPDLRHIEDRLDEIEALVVTHAHEDHIGAIPFLLKLRPDIPVVGSKFTIALVREKCREHRLKPKFVEVAERQSSQHGVFECEYFAVNHSIPGCLAVAIHTGAGTVLHTGDIKLDQLPLDGRPTDLPGMSRLGDAGVDLFLCDSTNSEHPGVSPSESEVGPTLHRLIRGAEGRVIVACFASNVDRVQQIIDAAVALGRRVSFVGRSMVRNMGIARELGYLKVDDSDILDIAAAEMMPPDRVVLITTGTQGEPMAALSRMSRGEHRSITLTSGDLIILSSSLIPGNEEAVYGVIDSLSKIGARVVTNAQARVHVSGHAYAGELLFLYNGVRPRNVMPVHGTWRHLRANAALAASTGVPPENIVLAENGVSVDLVAGRASISGAVTVGKMFVDGLITGDVGDATLGERLILSSGFVSITVVVHRGTGRPAGPAHLISRGFSEDPKALEPVAQKVERELEALAADNVTDPTRIAQAVRRTVGKWVGETYRRQPMIVPTVIEI
Q: Does B3 bind [1]?
A: binds

B4: untagged RNase J (catalytically active) (enzyme)
chain: B3 chain
Q: Does B4 bind [2]?
A: binds

B5: catalytically dead RNase E N-terminal IDR deletion (retaining AA 330-1037), N-terminal 6x-His and FLAG tagged (domain or fragment)
chain: SDKSDDSEIQGISGSTRLEAKRQRRRDGRDAGRRRPPILSEAEFLARREAVERTMIVRDKVRTEPPHEGARYTQIAVLEDGVVVEHFVTSAASASLVGNIYLGIVQNVLPSMEAAFVDIGRGRNGVLYAGEVNWEAAGLGGQNRKIEQALKPGDYVVVQVSKDPVGHKGARLTTQVSLAGRYLVYVPGASSTGISRKLPDTERQRLKEILREVVPSDAGVIIRTASEGVKEEDIRSDVERLQKRWSEIEAKAAEVTEKKAGAAVALYEEPDVLVKVIRDLFNEDFSSLIVSGDEAWNTINSYVEAVAPDLMPRLTKYEPAGPDAPDVFAVHRIDEQLAKAMDRKVWLPSGGTLVIDRTEAMTVVRVNTGKFTGSGGNLEQTVTRNNLEAAEEIVRQLRLRDIGGIVVIRFIDMVLESNRDLVLRRLTEALARDRTRHQVSEVTSLGLVQLTRKRLGTGLVEAFSTACTHCGGRGIVLHGDPIDSASSNGGRKSDSSGGGGSGGGRRGKRGKKGAARTEEVHVAKVPDHTPGEHPMFKAMAAANGKHEGDEDHEDHEDHETAEDTTAAEVRDDTRDEHDADERAHVVTAAVGAAGDEDLDDSDEDSDLDSDEESDDESDEDEIELDDDEDELDEDIEVIGDSDDSDDSDDSDEDDDSDDSDDDSDEDEDSDSDEDEEPVREVYEPPVTAPRARVRRRAAARPAGPPSHD
Q: Does B5 bind [3]?
A: binds

Q: And the “stoichiometry N” value (SEC)?
A: 2 and 4
